What was measured:
[1] = biological target: hemoglobin (with bound heme) (bovine) (UniProt P01966); assay: SPR
[2] = biological target: apo-hemoglobin (hemoglobin lacking heme) (bovine) (UniProt P01966); assay: SPR

With “IsdX1 (GST removed with thrombin) (domain or fragment)” the Kd [1] was 0.00733 mM and the Kd [2] was 9.43 mM.

Reference: publication PMC2515342
